Here are results for one substance from patent publication US20250161408A1, “PEPTIDIC INHIBITORS OF AMYLOID SELF- AND CROSS-ASSEMBLY” (TECHNISCHE UNIVERSITÄT MÜNCHEN, priority 2022, published 2025).

Bounds are passed on as bounds.

Test [1] has as its target Aβ42 (Homo sapiens (Human)) (UniProt P05067).
The target in test [2] is Aβ42 fibrils (fAβ42) (Homo sapiens (Human)) (UniProt P05067).
In test [3] the target is islet amyloid polypeptide (IAPP) (human) (UniProt P10997).
Test [4] has as its target IAPP fibrils (fIAPP) (human) (UniProt P10997).

Consider “proteinase K (PK) (from UniProt P06873) (enzyme)”, for which, in test [1], the proteinase K digestion of hf-Aβ42/Nle3-VF followed by dot blot (6E10) was determined as 30 min. For the same substance, in test [2], the proteinase K digestion followed by dot blot (6E10) came to 2 h. This substance returned a proteinase K digestion of hf-IAPP/ACM followed by dot blot in test [3] of less than 6 h. For the same substance, the proteinase K digestion followed by dot blot (anti-fIAPP antibody) in test [4] is greater than 30 h.
